These results are taken from article doi:10.1101/2024.01.20.576400 (bioRxiv, 2024).

The target in experiment [1] is Pwl2-2 (Magnaporthe oryzae). As to the kind of experiment: ITC. A general note: Isothermal titration calorimetry measures the heat released or taken up as one component is titrated into another.
For experiment [2], the target named is Pwl2-3 (Magnaporthe oryzae). As to the kind of experiment: ITC.

For the substance “HMA domain of OsHIPP43 (residues 26-101) (from UniProt Q8LJL3 26-101) (domain or fragment)”, the Kd (usually the concentration at which binding is half-saturated) in experiment [1] was found to be 141 nM; in experiment [2], 35 nM.
